Consider 1 molecule from patent publication US20030157685A1 (GENERAL HOSPITAL CORPORATION A MASSACHUSETTS, published 2003).

Assay [1] has as its target T1, LexA-C-myc bait (carboxy-terminal 176 amino acids of human C-myc) (human, UniProt P0A7C2 1-202; P01106 279-454).
T1 construct: also called Lex-C-myc
In words: yeast two-hybrid.

The target of assay [2] is T2, LexA-N-myc bait (carboxyl-terminal 224 amino acids of human N-myc) (human, UniProt P0A7C2 1-202; P04198 241-464).
T2 construct: also called PL-LexA-N-myc
T2 sequence (looked up): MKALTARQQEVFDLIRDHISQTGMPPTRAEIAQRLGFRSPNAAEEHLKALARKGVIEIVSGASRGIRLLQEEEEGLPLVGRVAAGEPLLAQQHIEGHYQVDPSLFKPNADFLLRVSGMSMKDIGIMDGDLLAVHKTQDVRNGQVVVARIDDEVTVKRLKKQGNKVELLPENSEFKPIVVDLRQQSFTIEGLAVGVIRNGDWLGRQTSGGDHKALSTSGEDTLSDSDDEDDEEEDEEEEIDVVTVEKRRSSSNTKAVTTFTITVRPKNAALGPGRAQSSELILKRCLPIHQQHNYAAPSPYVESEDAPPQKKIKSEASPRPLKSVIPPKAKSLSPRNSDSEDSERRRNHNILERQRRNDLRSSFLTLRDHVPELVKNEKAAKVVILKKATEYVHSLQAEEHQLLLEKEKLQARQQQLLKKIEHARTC
In words: yeast two-hybrid.

B1: full length Nmi fused in-frame with the transcriptional activator B42 in JG4-5 vector (other, not shown: small tags and cut ends)
chain: MEADKDDTQQILKEHSPDEFIKDEQNKGLIDEITKKNIQLKKEIQKLETELQEATKEFQIKEDIPETKMKFLSVETPENDSQLSNISCSFQVSSKVPYEIQKGQALITFEKEEVAQNVVSMSKHHVQIKDVNLEVTAKPVPLNSGVRFQVYVEVSKMKINVTEIPDTLREDQMRDKLELSFSKFRNGGGEVDRVDYDRQSGSAVITFVEIGVADKILKKKEYPLYINQTCHRVTVSPYTEIHLKKYQIFSGTSKRTVLLTGMEGIQMDEEIVEDLINIHFQRAKNGGGEVDVVKCSLGQPHIAYFEE
notes: Yeast two-hybrid prey; the 307 amino acid protein is meant
B1: the binding result in assay [1] and in assay [2] was “binds” in each case.
